Assay results reported in patent publication US20260176314.

T1: FLAG_SERPINB14_HiBiT
T1 chain: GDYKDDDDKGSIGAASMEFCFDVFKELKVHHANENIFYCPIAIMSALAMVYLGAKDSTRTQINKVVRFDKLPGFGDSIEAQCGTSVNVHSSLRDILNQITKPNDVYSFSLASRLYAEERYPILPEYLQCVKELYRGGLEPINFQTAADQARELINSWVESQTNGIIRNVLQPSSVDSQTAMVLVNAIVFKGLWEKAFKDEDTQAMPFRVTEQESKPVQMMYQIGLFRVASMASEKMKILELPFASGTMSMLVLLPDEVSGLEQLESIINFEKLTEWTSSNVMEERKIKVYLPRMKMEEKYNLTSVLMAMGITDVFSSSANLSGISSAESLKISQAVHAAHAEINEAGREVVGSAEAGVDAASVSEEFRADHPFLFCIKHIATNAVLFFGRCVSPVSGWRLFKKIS


Target: T1, FLAG_SERPINB14_HiBiT

Row | Protein | phosphorylation sites detected by LC-MS/MS after co-expression in Pichia pastoris
1 | Fam20c(M1-R584)_MYC (protein) MKMMLVRRFRVLILMVFLVACALHIALDLLPRLERRGARPSGEPGCSCAQPAAEVAAPGWAQVRGRPGEPPAASSAAGDAGWPNKHTLRILQDFSSDPSSNLSSHSLEKLPPAAEPAERALRGRDPGALRPHDPAHRPLLRDPGPRRSESPPGPGGDASLLARLFEHPLYRVAVPPLTEEDVLFNVNSDTRLSPKAAENPDWPHAGAEGAEFLSPGEAAVDSYPNWLKFHIGINRYELYSRHNPAIEALLHDLSSQRITSVAMKSGGTQLKLIMTFQNYGQALFKPMKQTREQETPPDFFYFSDYERHNAEIAAFHLDRILDFRRVPPVAGRMVNMTKEIRDVTRDKKLWRTFFISPANNICFYGECSYYCSTEHALCGKPDQIEGSLAAFLPDLSLAKRKTWRNPWRRSYHKRKKAEWEVDPDYCEEVKQTPPYDSSHRILDVMDMTIFDFLMGNMDRHHYETFEKFGNETFIIHLDNGRGFGKYSHDELSILVPLQQCCRIRKSTYLRLQLLAKEEYKLSLLMAESLRGDQVAPVLYQPHLEALDRRLRVVLKAVRDCVERNGLHSVVDDDLDTEHRAASAREQKLISEEDL | S69, T76, T92, S99, S165, T202, S206, and S345

Target: FLAG_TRX_SPP1 (G158-N314)_HiBiT
Sequence (chain, as listed by the source): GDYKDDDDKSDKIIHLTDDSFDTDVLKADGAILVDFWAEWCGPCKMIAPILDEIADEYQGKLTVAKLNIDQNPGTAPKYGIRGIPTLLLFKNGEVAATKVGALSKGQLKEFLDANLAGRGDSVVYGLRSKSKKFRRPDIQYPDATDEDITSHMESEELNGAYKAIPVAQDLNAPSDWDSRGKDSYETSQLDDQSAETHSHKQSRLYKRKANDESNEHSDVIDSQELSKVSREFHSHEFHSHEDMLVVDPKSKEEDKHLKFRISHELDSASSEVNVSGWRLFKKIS

Row | Protein | Phosphorylation
2 | ScKRE(M1-I58)_Fam20c(R32-R584)_FLAG (protein) MALFLSKRLLRFTVIAGAVIVLLLTLNSNSRTQQYIPSSISAAFDFTSGSISPEQQVIRLERRGARPSGEPGCSCAQPAAEVAAPGWAQVRGRPGEPPAASSAAGDAGWPNKHTLRILQDFSSDPSSNLSSHSLEKLPPAAEPAERALRGRDPGALRPHDPAHRPLLRDPGPRRSESPPGPGGDASLLARLFEHPLYRVAVPPLTEEDVLFNVNSDTRLSPKAAENPDWPHAGAEGAEFLSPGEAAVDSYPNWLKFHIGINRYELYSRHNPAIEALLHDLSSQRITSVAMKSGGTQLKLIMTFQNYGQALFKPMKQTREQETPPDFFYFSDYERHNAEIAAFHLDRILDFRRVPPVAGRMVNMTKEIRDVTRDKKLWRTFFISPANNICFYGECSYYCSTEHALCGKPDQIEGSLAAFLPDLSLAKRKTWRNPWRRSYHKRKKAEWEVDPDYCEEVKQTPPYDSSHRILDVMDMTIFDFLMGNMDRHHYETFEKFGNETFIIHLDNGRGFGKYSHDELSILVPLQQCCRIRKSTYLRLQLLAKEEYKLSLLMAESLRGDQVAPVLYQPHLEALDRRLRVVLKAVRDCVERNGLHSVVDDDLDTEHRAASARDYKDDDDK | Yes
3 | ScKRE2(M1-S80)_Fam20c(D93-R584)_FLAG (protein) MALFLSKRLLRFTVIAGAVIVLLLTLNSNSRTQQYIPSSISAAFDFTSGSISPEQQVISEENDAKKLEQSALNSEASEDSDFSSDPSSNLSSHSLEKLPPAAEPAERALRGRDPGALRPHDPAHRPLLRDPGPRRSESPPGPGGDASLLARLFEHPLYRVAVPPLTEEDVLFNVNSDTRLSPKAAENPDWPHAGAEGAEFLSPGEAAVDSYPNWLKFHIGINRYELYSRHNPAIEALLHDLSSQRITSVAMKSGGTQLKLIMTFQNYGQALFKPMKQTREQETPPDFFYFSDYERHNAEIAAFHLDRILDFRRVPPVAGRMVNMTKEIRDVTRDKKLWRTFFISPANNICFYGECSYYCSTEHALCGKPDQIEGSLAAFLPDLSLAKRKTWRNPWRRSYHKRKKAEWEVDPDYCEEVKQTPPYDSSHRILDVMDMTIFDFLMGNMDRHHYETFEKFGNETFIIHLDNGRGFGKYSHDELSILVPLQQCCRIRKSTYLRLQLLAKEEYKLSLLMAESLRGDQVAPVLYQPHLEALDRRLRVVLKAVRDCVERNGLHSVVDDDLDTEHRAASARDYKDDDDK | Yes
4 | ScMNN2(M1-S150)_Fam20c(R32-R584)_FLAG (protein) MLLTKRFSKLFKLTFIVLILCGLFVITNKYMDENTSVKEYKEYLDRYVQSYSNKYSSSSDAASADDSTPLRDNDEAGNEKLKSFYNNVFNFLMVDSPKGSTAKQYNEACLLKGDIGDRPDHYKDLYKLSAKELSKCLELSPDEVASLTKSRLERRGARPSGEPGCSCAQPAAEVAAPGWAQVRGRPGEPPAASSAAGDAGWPNKHTLRILQDFSSDPSSNLSSHSLEKLPPAAEPAERALRGRDPGALRPHDPAHRPLLRDPGPRRSESPPGPGGDASLLARLFEHPLYRVAVPPLTEEDVLFNVNSDTRLSPKAAENPDWPHAGAEGAEFLSPGEAAVDSYPNWLKFHIGINRYELYSRHNPAIEALLHDLSSQRITSVAMKSGGTQLKLIMTFQNYGQALFKPMKQTREQETPPDFFYFSDYERHNAEIAAFHLDRILDFRRVPPVAGRMVNMTKEIRDVTRDKKLWRTFFISPANNICFYGECSYYCSTEHALCGKPDQIEGSLAAFLPDLSLAKRKTWRNPWRRSYHKRKKAEWEVDPDYCEEVKQTPPYDSSHRILDVMDMTIFDFLMGNMDRHHYETFEKFGNETFIIHLDNGRGFGKYSHDELSILVPLQQCCRIRKSTYLRLQLLAKEEYKLSLLMAESLRGDQVAPVLYQPHLEALDRRLRVVLKAVRDCVERNGLHSVVDDDLDTEHRAASARDYKDDDDK | Yes
5 | ScMNN2(M1-S36)_Fam20c(R32-R584)_FLAG (protein) MLLTKRFSKLFKLTFIVLILCGLFVITNKYMDENTSRLERRGARPSGEPGCSCAQPAAEVAAPGWAQVRGRPGEPPAASSAAGDAGWPNKHTLRILQDFSSDPSSNLSSHSLEKLPPAAEPAERALRGRDPGALRPHDPAHRPLLRDPGPRRSESPPGPGGDASLLARLFEHPLYRVAVPPLTEEDVLFNVNSDTRLSPKAAENPDWPHAGAEGAEFLSPGEAAVDSYPNWLKFHIGINRYELYSRHNPAIEALLHDLSSQRITSVAMKSGGTQLKLIMTFQNYGQALFKPMKQTREQETPPDFFYFSDYERHNAEIAAFHLDRILDFRRVPPVAGRMVNMTKEIRDVTRDKKLWRTFFISPANNICFYGECSYYCSTEHALCGKPDQIEGSLAAFLPDLSLAKRKTWRNPWRRSYHKRKKAEWEVDPDYCEEVKQTPPYDSSHRILDVMDMTIFDFLMGNMDRHHYETFEKFGNETFIIHLDNGRGFGKYSHDELSILVPLQQCCRIRKSTYLRLQLLAKEEYKLSLLMAESLRGDQVAPVLYQPHLEALDRRLRVVLKAVRDCVERNGLHSVVDDDLDTEHRAASARDYKDDDDK | Yes
6 | ScMNN2(M1-P97)_Fam20c(R32-R584)_FLAG (protein) MLLTKRFSKLFKLTFIVLILCGLFVITNKYMDENTSVKEYKEYLDRYVQSYSNKYSSSSDAASADDSTPLRDNDEAGNEKLKSFYNNVFNFLMVDSPRLERRGARPSGEPGCSCAQPAAEVAAPGWAQVRGRPGEPPAASSAAGDAGWPNKHTLRILQDFSSDPSSNLSSHSLEKLPPAAEPAERALRGRDPGALRPHDPAHRPLLRDPGPRRSESPPGPGGDASLLARLFEHPLYRVAVPPLTEEDVLFNVNSDTRLSPKAAENPDWPHAGAEGAEFLSPGEAAVDSYPNWLKFHIGINRYELYSRHNPAIEALLHDLSSQRITSVAMKSGGTQLKLIMTFQNYGQALFKPMKQTREQETPPDFFYFSDYERHNAEIAAFHLDRILDFRRVPPVAGRMVNMTKEIRDVTRDKKLWRTFFISPANNICFYGECSYYCSTEHALCGKPDQIEGSLAAFLPDLSLAKRKTWRNPWRRSYHKRKKAEWEVDPDYCEEVKQTPPYDSSHRILDVMDMTIFDFLMGNMDRHHYETFEKFGNETFIIHLDNGRGFGKYSHDELSILVPLQQCCRIRKSTYLRLQLLAKEEYKLSLLMAESLRGDQVAPVLYQPHLEALDRRLRVVLKAVRDCVERNGLHSVVDDDLDTEHRAASARDYKDDDDK | Yes
7 | ScMNN6(M1-P30)_Fam20c(R32-R584)_FLAG (protein) RLERRGARPSGEPGCSCAQPAAEVAAPGWAQVRGRPGEPPAASSAAGDAGWPNKHTLRILQDFSSDPSSNLSSHSLEKLPPAAEPAERALRGRDPGALRPHDPAHRPLLRDPGPRRSESPPGPGGDASLLARLFEHPLYRVAVPPLTEEDVLFNVNSDTRLSPKAAENPDWPHAGAEGAEFLSPGEAAVDSYPNWLKFHIGINRYELYSRHNPAIEALLHDLSSQRITSVAMKSGGTQLKLIMTFQNYGQALFKPMKQTREQETPPDFFYFSDYERHNAEIAAFHLDRILDFRRVPPVAGRMVNMTKEIRDVTRDKKLWRTFFISPANNICFYGECSYYCSTEHALCGKPDQIEGSLAAFLPDLSLAKRKTWRNPWRRSYHKRKKAEWEVDPDYCEEVKQTPPYDSSHRILDVMDMTIFDFLMGNMDRHHYETFEKFGNETFIIHLDNGRGFGKYSHDELSILVPLQQCCRIRKSTYLRLQLLAKEEYKLSLLMAESLRGDQVAPVLYQPHLEALDRRLRVVLKAVRDCVERNGLHSVVDDDLDTEHRAASARDYKDDDDK | Yes
8 | ScMNN1(M1-A42)_Fam20c(D93-R584)_FLAG (protein) MLALRRFILNQRSLRSCTIPILVGALIIILVLFQLVTHRNDADFSSDPSSNLSSHSLEKLPPAAEPAERALRGRDPGALRPHDPAHRPLLRDPGPRRSESPPGPGGDASLLARLFEHPLYRVAVPPLTEEDVLFNVNSDTRLSPKAAENPDWPHAGAEGAEFLSPGEAAVDSYPNWLKFHIGINRYELYSRHNPAIEALLHDLSSQRITSVAMKSGGTQLKLIMTFQNYGQALFKPMKQTREQETPPDFFYFSDYERHNAEIAAFHLDRILDFRRVPPVAGRMVNMTKEIRDVTRDKKLWRTFFISPANNICFYGECSYYCSTEHALCGKPDQIEGSLAAFLPDLSLAKRKTWRNPWRRSYHKRKKAEWEVDPDYCEEVKQTPPYDSSHRILDVMDMTIFDFLMGNMDRHHYETFEKFGNETFIIHLDNGRGFGKYSHDELSILVPLQQCCRIRKSTYLRLQLLAKEEYKLSLLMAESLRGDQVAPVLYQPHLEALDRRLRVVLKAVRDCVERNGLHSVVDDDLDTEHRAASARDYKDDDDK | Yes
9 | Fam20c(M1-R584)_MYC (protein) MKMMLVRRFRVLILMVFLVACALHIALDLLPRLERRGARPSGEPGCSCAQPAAEVAAPGWAQVRGRPGEPPAASSAAGDAGWPNKHTLRILQDFSSDPSSNLSSHSLEKLPPAAEPAERALRGRDPGALRPHDPAHRPLLRDPGPRRSESPPGPGGDASLLARLFEHPLYRVAVPPLTEEDVLFNVNSDTRLSPKAAENPDWPHAGAEGAEFLSPGEAAVDSYPNWLKFHIGINRYELYSRHNPAIEALLHDLSSQRITSVAMKSGGTQLKLIMTFQNYGQALFKPMKQTREQETPPDFFYFSDYERHNAEIAAFHLDRILDFRRVPPVAGRMVNMTKEIRDVTRDKKLWRTFFISPANNICFYGECSYYCSTEHALCGKPDQIEGSLAAFLPDLSLAKRKTWRNPWRRSYHKRKKAEWEVDPDYCEEVKQTPPYDSSHRILDVMDMTIFDFLMGNMDRHHYETFEKFGNETFIIHLDNGRGFGKYSHDELSILVPLQQCCRIRKSTYLRLQLLAKEEYKLSLLMAESLRGDQVAPVLYQPHLEALDRRLRVVLKAVRDCVERNGLHSVVDDDLDTEHRAASAREQKLISEEDL | Yes
